Measured values from the DeepSol protein solubility set.

Test: soluble on expression in E. coli; label from the status in PepcDB or PDB records

Sequence	soluble on expression in E. coli
MPKKTFENLEDSHGKDVNIPVELPKRKREVTPENLPSTSSTAPTQKRKSLGYSGRTEEPKNIHKTFISPFSTSVSPSKQGLRRRKKALPAIEPPVSVEEASPLRFVNIDVFSRRMASESSDHDAMIAKLLSRKFSIPMEGYMLSGRSLGLGGNRRKCALFDPYHEGALILYAPEHLSEHAQLKEDKDRKVHVVADPVVGKILRPHQRDGVKFMWDCVTGINIPEFHGCIMADEMGLGKTLQCISLLWTLLRQSPDACPTVSKSIIVCPSSLVKNWDKEIKKWLGTRLNAMPVDSGKREQIIACLNSFMADSKMRCAIPVLIISYETFRLYANILHSGDVGIVICDEGHRLKNSENLTYQALSGLKCARRVLISGTPIQNDLLEYFSLVNFVNPGLLGTASEFRKKFENAILKGRDADASSEDQKKGEEKTKEMISLVEKCIIRRTSALLTKYLPVKYEHIICCKNSTLQETLYNKLIECEKQNRIVEKDKGATASALSFITHLKKLCNHPYLVYDEFQKPDNRFRNKCLSIFPESFNPKSFDPSFSGKMKVLDYILAVTRKTTDDKFVLVSNYTQTIDQFMELCKLRGYDFVRLDGSMSIKQRSKIVDTFNDPASTIFCFLLSSKAGGCGLNLIGANRLVMFDPDWNPANDDQAMARVWRDGQKKMCFIYRLLATGSIEEKMFQRQTHKKALSSCVVDAGEDVARHFSSEQLRELFKLESTVASDTHEKLKCKRCIQGVESVDPPTNADCASDLSNWFHSQKSARKVADNVLRAVFECGSISFVFHQKSHNVEVKKVQEKVEEVDEDYVPSEAEENDD	soluble
MAVVKVIRKLKAKRVVIKVGTSTLVYPDGSINLRAIDQLAFVISAMRHRGREVVLVSSGAIGVGLNYMGLKQRPKAIPEQQAIAAIGQTELISIYKERFAIYEQKIGQLLLTRDIFVYPKSHHNVLNTFEALLKQNVVPIVNENDTVAVDELDHETKFGDNDQLSAIVATNIGADLLIMLSDIDGFYDGNPNADARAQLLGHIEKVDQHTYKLAGGSGSRFGTGGMVTKLKAAERMIDANGQMILANGADPTIIFQILAGEPVGTLFGLEHHHHHH	not soluble
MAHHHHHHMCAYASILVVSAVHLCFCYRSHTSQSMTPAKALRLSSLPLATAWWRQHGLADRLEGFRACRQPTPRQRPLQRTADGGVSLGWAGLLAGAEQSRTSSITTATDRPPDLPLVLVSACLLSYPVTYRGTHTNLPASLRPTPLLFLTEVLFKELGLVQCVPVCPEVQWLGLPVPRVPLRLVRGSRGTDDARQRGSGWAAAQHSSSATLPSLSMSASDSVAIKGEREARYLVESSAEDHVLLRCDAPNDTFAEQSPSPQLHSAFLAQLVQDLKAVDGIILKSYSPSCGVRDARLYEEAVTSPPSSPCDQHACNACERAGKPTSASFIGRRPAASASAQRRFDLVDGFFTQQLRDFLTSMHGVGGERRADARCHSEAAAPVITCDRLLTDFYTEERLRRSPLAGKVKKRHVAGNASEAAPHLTSLDSFMESVLQHRDWRVSQHRC	not soluble
MAHHHHHHMRSLPNIIVTGVPGVGKTTLCEELVEILNKQLKENQQAESASQMKHLNLSKVIKEERLYEEFDDQLDASIYSSDMVNEKLEKLKLENGGYIIDFHDVDFLDEKELIDHIFLLTASTNKLYERLEKRNYSEEKIKNNIECEIFQVIKEDILTSYNDPSIFDELENNDMEQYESNLQLIKGWVLSWVKNGVAMPR	soluble
MKNIAAQMVNFDREQMRRIANIDNQDMTISVWVFPDTDISDVSRELIAAIKQGYLTVKAAGVWAGGIETPSVETPSEGSKFFGFDMDNEFISGFDVGAWGVLL	soluble
MQSAELKQFVVDKIDDLKARDVVVIDVSNQSNITDYMVICSGTSKTHVKAIAENLVIEAKAAGIPPIGIEGRDSSEWVLVDMGNVILHVMQDQTRDFYQLEKLWSEKQA	soluble
MGSDKIHHHHHHMINKELTAATFMEVIAEDNRFIYDGIDSNFEPELVFLEFFEALLSFAFICVTDQMTKSYTNVPADDVSGNKHETIYTILNQDAQNKSPSAVMSHESDAAHSDSARSSSSKLELSPDVNKIRKSEPKIKKSVSHERVSKMNFKLTGKGITFFSSESKKYERPKDDREEEFNTWVNNTYVFFVNTLFHAYKREEAIKEKIRADRLRSTAQAQQRKMEDDELEARLNIFILREEEAKRHDYEVDITVLKEPADVSSSHLILDPPKEDVTVSPSSKTITSKKKKK	not soluble
MNLTQMLPDLDDVPESLLDEAIFDSFLSWTRSKDLALYPAQEEAALGILAGDNVILATPTGSGKSMVAIAAHFIAMARGQRSFYTAPIKALVNEKFFALCDIFGPESVGMMTGDATVNGSAPIICATAEIVANIALRDGTDADIDQVVMDEFHYYSEPGRGWAWQVPLLELPRTQFLLMSATLGDTTFIQKDLSDRTGRTTNLVAGATRPVPLQFSYVYTPVHETIQDLLDTNNAPIYVVHFTQREAIERAQSLTSMTVIDSETKEKIATEIGNFKFTTTFGHTLSKLLRKGIGVHHAGMLPKYRRLVEKLSQTGLLKIICGTDTLGVGINVPIRTVLFTGLAKFDGSKQRILASREFHQIAGRAGRAGYDTVGNVVIEAPEHEIENWRLRQRAGSDLKKLKKLRKKSARDGEVTWGEKTYERLSEAEPENLQSQFRISNSMLLNVIARSGDAYVHLKHLLRTNHDTRDKQNKDILTALELFRGLVAAGIVEKLDSPDSTGRKYVITEDLRRDFALNQPLAPFALAALEILDKESTSYALDVISVFESILEDPRVVLIAQQKQARGEEIAALKAEGVEYTERMNIVEEISWPKPLEEILEPAFDTYCSGHPWAKEFTLSPKSIVRDMIEHGMTFSDFIATYGLSRSEGVVLHYLTDAWKTLSHSVPTEYVSDELEEIIEWLGELVRQVDSSLIDEWANMADPDAPISQDTVDQQRAFGVEDPNAITANSRAFAVMVRNLMFRMVQLFAAEEEEKLEALTDYLDEQPDFSEALDVYFDEYSDLDVGPDARGREYFLLKKDGRIWSVRQIIKDPNDDRAFSFAATVDLNASDAADEVRFAKFSIDS	not soluble
MNIREIAAKCSKCGYCTTCPTYRIEGWETVSPRGKIQLALKYVDGEIDVDQKIVKDIFKCSVCGLCQEVCPVELPLIDFWEELRRTLVQKGLAPLSVHRKLREILEHHHHHH	not soluble
MLSDITIHNLGVIPSASLELSEGLTVLTGETGAGKTMVVTGLRLLAGGRAEAQRVRSGSSQAVVEGRFLLDSVAPESAEMARAVVSAAGGALDENGEVIVSRTVSAHGRSRAHLGGRSVPAASLVEFSKEVLTIHGQNDQLRLLNSDRQRDALDRFSQKISALMTVYSEAYRAWKNLSKDLQERQASKRELAQEVDRLEFAIREISEVDPQPGEEADLLVQIARLQDVDDLRAQAVGALSVIDGAAGVEGYATCDSSDADAASDLIGQALSSVRVSSDPTLQGVSQQLEAVTSILMEVSAQLGGFLDELPADPQMLDKLLQRQQALKQLTRKYASDIDGVIKWKLKAEQKLESIDVSPEALDQLKKETALAERKMNDAGMALRAARIEAAQELSNAVTKELHGLAMPKAMFSVVVHPTEPQPSGFDEVEFCLAPNNATDPRPLASSASGGELSRVMLALEVILSAGQHGNTLVFDEVDAGVGGRAAVEIGRRLARLAQNNQVIVVTHLPQVAAYADTHLHVAKDVGESTVTSGVEKLSEQRRVEDLARMLAGLEDTDTGRAHAKELFEKAQAENRAFRV	not soluble
GDLVGPGCAEYAAANPTGPASVQGMSQDPVAVAASNNPELTTLTAALSGQLNPQVNLVDTLNSGQYTVFAPTNAAFSKLPASTIDELKTNSSLLTSILTYHVVAGQTSPANVVGTRQTLQGASVTVTGQGNSLKVGNADVVCGGVSTANATVYMIDSVLMPPA	soluble
MNKKHYLLYGSERYALAILRPLQAAIRARGDEAAWFFDGPGAEDLAADEQLLSVAQVRLWKPYAVITSSNAVPHFFPGVKVEVFHGFNAGKPRHVYSRGFFDLYCTTGPRDTAAFGELADRLGHFAVKQTGWPKIDPFMGEMSQALVPVRQPPVILYHSTFSPSWSAADILYDEIKRLSLRGEWRWIVTFHPKMNPDVVARYRALQSEHLCFSDNDNILELFPHVDMMCSDTSSALNEFLLTCKPVVTFKNRNPGPQLIDIDDPAQFESAIRRALSRPPELLSAIRAYADAIHPYWDGRSSERVLEAIDAFVAEGGRNRRTKPLNLWRKFKLRKRIGYWGPAWL	not soluble
MGSDKIHHHHHHMKETVYFGTYTRRTSQGIYKADFDTETGQLSNLELFAAEPSPTYLAFDQHQHLYTVGSQDDKGGIAAYQTDGTVLNHVVEEGAPHCYVAVDEKRDLVYAANYHKGQVLVYKRQEDGSLLLSDMDQHSGQGPHENQASPHVHYTDLTPDHYLVTCDLGTDQVITYDLDQEGKLSKLYTYHSKPGAGSRHIIFHNHYKIAYLICELNSTIEVLIYDGVGEFERMQVISTLPEAYEGFNGTAAIHLSKDGKYLYASNRGHDSIAVYTILADGSLELLEIVPTHGQTPRDFDLTPDQKFLIVVHQDSDNATVFKRNCDNGRLAELSNDFHVPEAVCIRFAP	not soluble
MQILKVIGLLMEYPDELLWECKEDALALIRRDAPMLTDFTHNLLNAPLLDKQAEWCEVFDRGRTTSLLLFEHVHAESRDRGQAMVDLLAEYEKVGLQLDCRELPDYLPLYLEYLSVLPDDQAKEGLLNVAPILALLGGRLKQREAPWYALFDALLQLAGSSLSSDSVTKQVNSEERDDTRQALDAVWEEEQVKFIEDNATACDSSPLNQYQRRFSQDVAPQYVDISAGGGK	not soluble
MGSDKIHHHHHHMSAQVQDLTPIKGVTYYYPPHDAVLVFKDGAAEIPYGGLPVPLLEEDYASLDGEPSYDAVGRGVYQTLRTNPDCIHCAAYATLLRDAYPHYLAELASHAIMLDSKDVEVPYIDRKIVSLKVLSLLEPDNAGLPLEIGRAYLDRGLRLSALHMSTVSIYRAEHFLRRALELTPEDGRALRLLGEVCYLLGKYEEAASCWLDTLDLADADEAERFRVRLARISEGRLPLIAPVDYLEAIGAAFTCFHTGDYEEAVAILQDVLMDGIFCAEFPIADIHCVIGKSFVQLDMPRYAEESFRAALQLDPAHEESLACLRKVTGEE	not soluble
MGSDKIHHHHHHMDLEIATVKAILTEHDLLKEIKSTKTVANTGISYDSRTVKPGYMFFCKGNFKPEYLSVARQNGATTYVSENEYPEGTGMTAIIVTNVTRAMAVLSATYYNFPQNDLFIIGITGTKGKTSSAYFAHSILNQKYPNQVALFSTIDRIVGPKPEDQFKSDLTTPESMNLFHDMRVAVDNGMKYLVMEVSSQAYLRDRVYGLKFDCGIFLNITPDHIGRNEHKDFEDYLHCKLQLMVNSKRCIIDADTDRFDDVFGAAKATTDPEQIYLFSADVENGGVDFLIQDEEDDLTSNRFTLVESSSKAEAFHVAGDYDLNVAGDYNQSNATAAIIAAALADVTYQDAVLPLKSIVIPGRMEHLNVPGHGVVFVDYAHNYASLHALLKFLKHQYHDGKVIVVVGSPGDKGISRRAGFGQALSEQADIAYLTTDDPAFEDPEQIIQQIMDNIKPGTVEVRQVLDRHDAIEQAIMNSSEKDVVVLAGKGEDPYQKVGGVDTPWPTDMGVAEEVKRGLS	not soluble
FSDAFETAFFSVSNIGLHARAYKDKLFVHTASLRSGNPYKQVDLLVLDAKGETVLQGATDDNGNALLNYTLNAGHVLVSRNGRDISILPFNQPALDLSEFAVAGRENPWFDVFAWSGRDLYRPGEMLRISALLRDRDGKPVKPQPVFLRLKQPDGKTFRETRLQPAEQGYLEFTQKIPSDAPTGRWRVEFRTDPASKEAVQGLAVRVEEFLPERMKLELSSAQPVLRAKAPFTLTADAAYLYGAPAAGNRFTANLAVAVEQHPLDNMPGWFFGDATL	not soluble
MNDDRATAFNALKNKTVCVQGDGNSRQFYHALVEILSNHSSAIPVNKNGNDFCNAPFAQCPQDTYYFDLVDKSDNLSVKLYWRWAPEFSDIECPMKVPSGFTPGSNYSFPSGPDTLSCDINIMDAGQWELFEKDANVTTAGYSQGVSNLSKCFSSDKSAKYFWIAAYALTPEQLQIHLPYNNTDVERINEVATQGLNSTACVLNGYDVTVNAFNDTKEATTDGIHYLGWINEQVVQLFFNAVTNSSAPTVPSSNVSVTSPNVQLGQVPNLNPSTTNSFLPVQTIVTVPSSSATSASSGLNFGGSSQGGGSGIPQL	not soluble
